Reference: the supplement of paper PMC11908140

B1: library; numbered along this chain (parent)
chain: MRKPRAAVGSGHRKQAASQEGRQKHAKNNSQAKPSACDGLARQPEEVVLQASVSSYHLFRDVAEVTAFRGSLLSWYDQEKRDLPWRRRAEDEMDLDRRAYAVWVSEVMLQQTQVATVINYYTGWMQKWPTLQDLASASLEEVNQLWAGLGYYSRGRRLQEGARKVVEELGGHMPRTAETLQQLLPGVGRYTAGAIASIAFGQATGVVDGNVARVLCRVRAIGADPSSTLVSQQLWGLAQQLVDPARPGDFNQAAMELGATVCTPQRPLCSQCPVESLCRARQRVEQEQLLASGSLSGSPDVEECAPNTGQCHLCLPPSEPWDQTLGVVNFPRKASRKPPREESSATCVLEQPGALGAQILLVQRPNSGLLAGLWEFPSVTWEPSEQLQRKALLQELQRWAGPLPATHLRHLGEVVHTFSHIKLTYQVYGLALEGQTPVTTVPPGARWLTQEEFHTAAVSTAMKKVFRVYQGQQPGTCMGSKRSQVSSPCSRKKPRMGQQVLDNFFRSHISTDAHSLNSAAQ

Variants of: B1
Assay: 8OG:A repair function score (normalized; synonymous = 0, nonsense = -1) (normalized log-likelihood score); higher = more repair activity (WT-like)
Conditions: with 8OG:A DNA repair reporter (GFP) in HEK-293 MUTYH KO cells
Procedure, shortened: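 GFP+ (repair) and GFP− bins of viable mCherry+ cells were collected at 72 h from MUTYH knockout HEK-293 cells bearing lentiviral MUTYH cDNA NNN codon-scan libraries in 10 pg/ml doxycycline, co-transfected with an 8OG:A GFP repair reporter and mCherry. Tile amplicons were sequenced, and per-tile Rosace fitness scores were normalized to a repair function score anchored on synonymous and nonsense distributions. Synonymous medians were set to 0 and nonsense to -1, with variants under 300 counts per million at the start removed.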
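Further: cells sorted at 72 h after reporter transfection.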

Compared with G356C, G356K is lower in “8OG:A repair function score” value: -0.0641 for the first, -0.0901 for the second.

Compared with G356P, V62E is lower in “8OG:A repair function score” value: -0.0644 for the first, -0.456 for the second.

First: P377A
Second: P377E
The “8OG:A repair function score” value of the first is higher: -0.486 for the first, -1.13 for the second.

Compared with G39A, G39K is higher in “8OG:A repair function score” value: 0.101 for the first, 0.121 for the second.

Compared with D208M, S344M is higher in “8OG:A repair function score” value: -0.974 for the first, 0.0335 for the second.

Compared with A254T, A254L is higher in “8OG:A repair function score” value: -2.58e-05 for the first, 0.114 for the second.

First: P442F
Second: S54Y
The “8OG:A repair function score” value of the first is lower: -0.0534 for the first, 0.00243 for the second.

Going from Q363I to Q363P, the “8OG:A repair function score” value falls from -0.184 to -0.208.

Going from Q363N to Q363K, the “8OG:A repair function score” value rises from -0.441 to -0.227.

First: T324Q
Second: K390L
The “8OG:A repair function score” value of the first is higher: -0.0692 for the first, -0.0847 for the second.

Going from Q202T to Y428N, the “8OG:A repair function score” value falls from -0.198 to -1.01.

Going from Y428L to L58M, the “8OG:A repair function score” value rises from -0.828 to -0.0211.

Compared with G429Q, G429T is higher in “8OG:A repair function score” value: -0.283 for the first, -0.219 for the second.

Compared with D224L, H454T is higher in “8OG:A repair function score” value: -0.947 for the first, 0.153 for the second.

Going from H454S to R189L, the “8OG:A repair function score” value falls from -0.168 to -0.316.

Going from A431P to L393Q, the “8OG:A repair function score” value rises from -0.0943 to 0.0615.

Compared with L393S, N307S is higher in “8OG:A repair function score” value: -0.405 for the first, -0.00118 for the second.

Going from G497D to G497S, the “8OG:A repair function score” value rises from -0.0474 to -0.0201.

Compared with Q450M, Q386V is lower in “8OG:A repair function score” value: -0.0723 for the first, -0.383 for the second.

Going from S486R to S486I, the “8OG:A repair function score” value falls from -0.0146 to -0.0359.

First: L95W
Second: L234E
The “8OG:A repair function score” value of the first is higher: -0.127 for the first, -0.954 for the second.

First: L234P
Second: N251S
The “8OG:A repair function score” value of the first is lower: -1.02 for the first, -0.903 for the second.

Compared with N251F, N251E is higher in “8OG:A repair function score” value: -1.03 for the first, -1.02 for the second.

Going from T476G to L448I, the “8OG:A repair function score” value rises from -0.0416 to -0.0362.

First: A357Y
Second: A400F
The “8OG:A repair function score” value of the first is lower: -0.118 for the first, 0.262 for the second.

Compared with Q240R, S343W is higher in “8OG:A repair function score” value: -0.97 for the first, -0.0714 for the second.

Compared with H508M, T417W is lower in “8OG:A repair function score” value: -0.0245 for the first, -0.253 for the second.

Compared with L180Q, L180N is lower in “8OG:A repair function score” value: -0.655 for the first, -1.02 for the second.

Compared with K481I, Q111L is lower in “8OG:A repair function score” value: 0.000486 for the first, -0.931 for the second.

Going from A36N to Q232H, the “8OG:A repair function score” value falls from -0.0203 to -0.21.

Compared with L257M, L257A is lower in “8OG:A repair function score” value: -0.192 for the first, -0.805 for the second.

First: L408R
Second: L408W
The “8OG:A repair function score” value of the first is lower: -0.839 for the first, -0.833 for the second.

Compared with A245G, A245K is lower in “8OG:A repair function score” value: 0.0269 for the first, -0.0553 for the second.

Going from A405F to L516T, the “8OG:A repair function score” value falls from 0.0223 to 0.0209.

Compared with Q498H, Q498P is lower in “8OG:A repair function score” value: -0.0117 for the first, -0.0275 for the second.

Going from Q288E to G236Y, the “8OG:A repair function score” value falls from -0.0177 to -0.152.

Going from V348G to D300P, the “8OG:A repair function score” value rises from -1.15 to -0.0407.

First: G412K
Second: L349R
The “8OG:A repair function score” value of the first is higher: -0.396 for the first, -1.15 for the second.

First: E178S
Second: L237M
The “8OG:A repair function score” value of the first is higher: -0.037 for the first, -0.32 for the second.

First: L237C
Second: L237H
The “8OG:A repair function score” value of the first is lower: -0.474 for the first, -0.433 for the second.

Compared with L237Q, E303H is higher in “8OG:A repair function score” value: -0.281 for the first, -0.102 for the second.

Going from V414E to L290C, the “8OG:A repair function score” value rises from -0.742 to -0.0194.

Going from L290E to T455Y, the “8OG:A repair function score” value falls from -0.0564 to -0.209.

Compared with G201I, G201M is higher in “8OG:A repair function score” value: -0.543 for the first, -0.244 for the second.

Compared with G201C, L183K is higher in “8OG:A repair function score” value: -0.103 for the first, -0.0447 for the second.

First: Y56K
Second: Q282T
The “8OG:A repair function score” value of the first is higher: -0.0455 for the first, -0.0623 for the second.

Compared with L49H, H416P is lower in “8OG:A repair function score” value: 0.0564 for the first, -0.576 for the second.

First: L423M
Second: N503Y
The “8OG:A repair function score” value of the first is higher: 0.142 for the first, -0.0151 for the second.

First: G186C
Second: T406M
The “8OG:A repair function score” value of the first is lower: -0.439 for the first, -0.199 for the second.

Compared with P443E, F418L is higher in “8OG:A repair function score” value: -0.318 for the first, -0.304 for the second.

First: Y469W
Second: G471N
The “8OG:A repair function score” value of the first is lower: 0.00845 for the first, 0.00878 for the second.

Compared with G471A, S138I is lower in “8OG:A repair function score” value: 0.0172 for the first, -0.286 for the second.

First: V165W
Second: F504N
The “8OG:A repair function score” value of the first is lower: -0.957 for the first, 0.023 for the second.

First: A259R
Second: C272M
The “8OG:A repair function score” value of the first is higher: -0.0545 for the first, -1.19 for the second.

First: A305D
Second: G150D
The “8OG:A repair function score” value of the first is higher: -0.0865 for the first, -1.38 for the second.

Compared with G150H, A354K is higher in “8OG:A repair function score” value: -1.12 for the first, -0.061 for the second.

First: L83G
Second: K127E
The “8OG:A repair function score” value of the first is lower: -0.971 for the first, -0.0486 for the second.

Compared with C347H, V114A is higher in “8OG:A repair function score” value: -1.55 for the first, 0.0344 for the second.

First: V117C
Second: Q252S
The “8OG:A repair function score” value of the first is higher: 0.0468 for the first, -0.483 for the second.

Going from Q252R to Q132V, the “8OG:A repair function score” value rises from -1.01 to -0.0799.

Going from G401Y to G401C, the “8OG:A repair function score” value rises from -0.393 to -0.381.

Compared with A6G, V102P is lower in “8OG:A repair function score” value: 0.0165 for the first, -1.21 for the second.

Compared with P84E, V214D is lower in “8OG:A repair function score” value: -0.125 for the first, -1.02 for the second.

Going from V214M to L289T, the “8OG:A repair function score” value rises from -0.207 to 0.0028.

First: V207G
Second: P338Q
The “8OG:A repair function score” value of the first is lower: -1.03 for the first, -0.00645 for the second.

Going from D502C to L361N, the “8OG:A repair function score” value falls from -0.00279 to -0.575.

First: L361W
Second: L361H
The “8OG:A repair function score” value of the first is higher: -0.755 for the first, -1.22 for the second.

First: L361K
Second: L295F
The “8OG:A repair function score” value of the first is lower: -0.984 for the first, -0.0139 for the second.

Compared with L295A, P317Y is lower in “8OG:A repair function score” value: -0.00496 for the first, -0.0115 for the second.

First: V230W
Second: Q426D
The “8OG:A repair function score” value of the first is lower: -0.571 for the first, -0.46 for the second.

Compared with V274P, G155V is higher in “8OG:A repair function score” value: -1.23 for the first, -0.116 for the second.

Compared with S367H, K464A is higher in “8OG:A repair function score” value: -0.207 for the first, -0.184 for the second.

First: Q239F
Second: Q388F
The “8OG:A repair function score” value of the first is lower: -0.526 for the first, -0.281 for the second.

First: Q388L
Second: D91H
The “8OG:A repair function score” value of the first is higher: 0.511 for the first, 0.0064 for the second.

First: E287D
Second: E287T
The “8OG:A repair function score” value of the first is lower: -0.0111 for the first, -0.00299 for the second.

First: K493C
Second: S52A
The “8OG:A repair function score” value of the first is lower: -0.00147 for the first, 0.00623 for the second.

Compared with S52L, N210F is lower in “8OG:A repair function score” value: 0.00142 for the first, -1 for the second.

Going from N210H to L373C, the “8OG:A repair function score” value rises from -0.833 to -0.611.

Compared with Q484W, Q484S is lower in “8OG:A repair function score” value: 0.00872 for the first, -0.0175 for the second.

Going from M125E to L277M, the “8OG:A repair function score” value rises from -0.577 to 0.00781.

Compared with R467V, R467L is higher in “8OG:A repair function score” value: -0.105 for the first, -0.0425 for the second.

First: T449S
Second: T449F
The “8OG:A repair function score” value of the first is higher: 0.084 for the first, -0.363 for the second.

First: R154L
Second: R154T
The “8OG:A repair function score” value of the first is higher: -1.06 for the first, -1.16 for the second.

For V284H, the “8OG:A repair function score” value was -0.12.
